How the values were obtained:
[1] = target: VEGF-B(10–108) (fusion protein) with thioredoxin, His tag and S tag (human); experiment: SDS-PAGE and Western blot
[2] = target: VEGF-B(10–108), minimal receptor-binding domain of vascular endothelial growth factor-B (untagged dimer) (human); experiment: crystal structure

VEGF-B(10–108) (fusion protein) with thioredoxin, His tag and S tag (domain or fragment)
stoichiometry N [1]: 2

VEGF-B(10–108), minimal receptor-binding domain of vascular endothelial growth factor-B (untagged dimer) (domain or fragment)
stoichiometry N [2]: 2
